Reference: paper PMC4364404

Molecular target: T1, NgTet1 (Naegleria gruberi, UniProt D2W6T1 1-321)
T1 sequence: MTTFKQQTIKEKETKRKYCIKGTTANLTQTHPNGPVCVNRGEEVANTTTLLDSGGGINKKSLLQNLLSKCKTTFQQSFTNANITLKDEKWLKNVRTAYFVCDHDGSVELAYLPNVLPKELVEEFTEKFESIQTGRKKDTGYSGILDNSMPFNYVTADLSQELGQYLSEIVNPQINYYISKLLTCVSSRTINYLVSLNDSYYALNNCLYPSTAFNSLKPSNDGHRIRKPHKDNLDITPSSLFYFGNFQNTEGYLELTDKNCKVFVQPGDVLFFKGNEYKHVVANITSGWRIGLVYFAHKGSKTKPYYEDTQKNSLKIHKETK
Assay: X-ray crystallography

B1: 14-bp fully methylated CpG DNA (dsDNA)
DNA 1: TGGAACGCAATTCT
DNA 2: AGAATTGCGTTCCA
modifications: 5mC at position 6 of strand 1 and position 8 of strand 2
**Q.** Does B1 bind?
**A.** Result: binds
